Data on 167 variants can be found in the RNAGym collection of RNA variant scans (doi:10.1093/nar/gkz1192).

To fix the notation:
B1: CPEB3 Ribozyme (parent)
chain: UAACAGGGGGCCACAGCAGAAGCGUUCACGUCGCAGCCCCUGUCAGAUUCUGGUGAAUCUGCGAAUUCUGCUGUAUAUCUC

Variants of B1 are the subject of this series. Put plainly: self-cleavage, relative activity (ratio to wild type); higher = more cleavage; in vitro, sequencing. The method in brief: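 For each CPEB3 ribozyme variant, relative activity is its cleaved/total read fraction divided by the unmutated ribozyme's. Barcoded error-prone PCR libraries were transcribed by T7 RNA polymerase (5 hours, 37°C) and held in DNase I for 15 min before an EDTA stop, with cleavage occurring throughout. Template-switching reverse transcription and Illumina sequencing were used to read the RNAs. A 5-read minimum applied, and results are the mean of three batches.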
As to C29G G55A, the self-cleavage came out at 0.16. Regarding C29G G73A, the self-cleavage came to 0.39. Then C29G A35G, with 0.67; and A28U C79U, with 0.99. Then C29A A56G, with 0.43.

C29A G55A: the self-cleavage was determined as 0.31. Consider A28U C29U, for which the self-cleavage was 0.48. As for A28U C29G, the figure is 0.1; as for A28U U49C, 0.31; as for A28U U49A, 0.43. Then A28U U49G, with 0.11; and C29A C59U, with 0.54; and A28U U41A, with 0.26. As for A28U U41G, the figure is 0.14; as for A28U U41C, 0.73. As for C29A C40A, the self-cleavage stood at 0.17. Then C29A U58C, with 0.29. Take A28U U76C: the self-cleavage amounted to 0.88. Then A28U U76A, with 0.87; and C29A U60A, with 0.11. As for C29A U60C, the figure is 0.2; as for C29A U48C, 0.11. As for C29A U48A, the figure is 0.09.

On to A28U G36A, for which the self-cleavage was determined as 0.08. Turning to A28U G36U, the self-cleavage was 0.41.

As to A28U G36C, the self-cleavage is 0.37. A28U G63A: the self-cleavage is 0.62. Then C29A A65G, with 0.26; and C29A A65U, with 0.14; and A28U U31A, with 0.41. As for A28U U31G, the figure is 0.31. As for A28U U31C, the figure is 0.53.

As to A28U G55A, the self-cleavage was 0.59.

On to C29G U49A, for which the self-cleavage turned out to be 0.38. As to A28U G70A, the self-cleavage was determined as 0.27.

In the case of C29G U41G, the self-cleavage was found to be 0.15. Then C29G U41A, with 0.33; and C29G U41C, with 0.2; and C29A U49A, with 0.45. As for C29A U49C, the figure is 0.29; as for C29A U49G, 0.22. With A28U U69C, the self-cleavage worked out at 0.33.

In the case of A28U U69G, the self-cleavage turned out to be 0.42. As for A28U U69A, the figure is 0.37. With A28U C81A, the self-cleavage turned out to be 0.84. Regarding A28U C81U, the self-cleavage stood at 0.86.

In the case of A28U U60G, the self-cleavage was 0.16. As for A28U U60A, the figure is 0.26.

Turning to A28U U60C, the self-cleavage is 0.38. As for C29A U66C, the self-cleavage is 0.29.

On to C29G U43C, for which the self-cleavage is 0.3.

As to A28U U78A, the self-cleavage turned out to be 0.51. For A28U U78G, the self-cleavage was determined as 0.97. Then A28U U78C, with 0.73; and C29A G63U, with 0.59.

On to A28U U43C, for which the self-cleavage was found to be 0.41.

Take A28U U43A: the self-cleavage was 1.

As to A28U C59U, the self-cleavage was determined as 0.34. On to A28U C59A, for which the self-cleavage stood at 0.21. Consider A28U C62U, for which the self-cleavage is 0.19. As for A28U C62A, the figure is 0.33; as for A28U G33A, 0.2; as for A28U G33C, 0.26.

Take A28U G33U: the self-cleavage was 0.14. As for A28U G73U, the figure is 1.37.

As to A28U G73A, the self-cleavage turned out to be 0.99. Regarding C29G G30A, the self-cleavage came out at 0.2. Consider A28U U54C, for which the self-cleavage is 0.78.

On to A28U U54A, for which the self-cleavage worked out at 0.71.

As to A28U U51C, the self-cleavage turned out to be 0.73. Then A28U U51A, with 0.77; and C29A C68A, with 0.23; and C29G A56G, with 0.23. As for A28U U80A, the figure is 0.71; as for A28U U80C, 0.97; as for A28U G46A, 0.46.

A28U G46U: the self-cleavage is 0.14. Then A28U U67A, with 0.3; and A28U U67G, with 0.2; and A28U U67C, with 0.27.

Turning to A28U C71U, the self-cleavage came out at 0.39.

With A28U C37U, the self-cleavage worked out at 0.41. With C29A A45G, the self-cleavage amounted to 0.46. Then A28U G30A, with 0.11. As for A28U G30U, the figure is 0.2; as for A28U U72C, 0.88; as for A28U U72A, 0.55. Take A28U U72G: the self-cleavage was determined as 0.89. Regarding C29G C81A, the self-cleavage amounted to 0.3. As for C29A U74A, the figure is 0.62; as for C29A, 0.44. Then C29G, with 0.3; and C29G A75G, with 0.21. In the case of C29G G33U, the self-cleavage stood at 0.09. C29A C32A: the self-cleavage stood at 0.32. Then C29A A64U, with 0.27; and C29A A64G, with 0.37. Then C29A A57G, with 0.33; and A28U U74A, with 1.19. A28U U74C: the self-cleavage amounted to 0.87.

In the case of C29A G53U, the self-cleavage is 0.42. Turning to C29A U72C, the self-cleavage is 0.31. As for C29A U72G, the figure is 0.18; as for A28U U66C, 0.37; as for A28U U66A, 0.31. Then A28U U66G, with 0.69. As to A28U C50A, the self-cleavage amounted to 0.53. Then A28U C50U, with 0.8. Then A28U C50G, with 0.74; and C29G A45G, with 0.29; and C29A U41G, with 0.43. Then C29A U41A, with 0.37; and C29A U41C, with 0.39; and C29A U67C, with 0.11. For the variant C29A U67A, the self-cleavage was 0.46. In the case of C29G U58C, the self-cleavage came out at 0.52. As for A28U A77U, the self-cleavage stood at 0.85.

As to A28U C39A, the self-cleavage was 0.15. As to A28U C39G, the self-cleavage is 0.27. Turning to A28U C39U, the self-cleavage stood at 0.48. With C29A U69G, the self-cleavage came to 0.22. Turning to C29A U69C, the self-cleavage is 0.18. As for C29G C59A, the figure is 0.1; as for C29G C59G, 0.2; as for C29G C34U, 0.08. C29G C34G: the self-cleavage came out at 0.22.

As for C29A A77G, the self-cleavage turned out to be 0.46. Then C29A A77U, with 0.33; and A28U G42U, with 0.21; and A28U G42C, with 0.28.

A28U G42A: the self-cleavage came to 0.27. Then C29A U76G, with 0.42; and C29A U54C, with 0.45; and C29A A47G, with 0.4. As for A28U G53A, the figure is 0.87; as for A28U G53U, 1. Then C29A C62U, with 0.15; and A28U C38U, with 0.48. Take A28U G52A: the self-cleavage was found to be 0.83. C29A A75G: the self-cleavage turned out to be 0.38. Turning to C29G A57G, the self-cleavage was 0.51.

For C29A U80C, the self-cleavage was determined as 0.54.

With C29G U54A, the self-cleavage came out at 0.28. As to C29G U54C, the self-cleavage was determined as 0.24. Consider C29A U78A, for which the self-cleavage was 0.27.

Consider C29A U78C, for which the self-cleavage is 0.3.

Consider A28U U58G, for which the self-cleavage came out at 0.2.

With A28U U58A, the self-cleavage came to 0.26.

As for A28U U58C, the self-cleavage is 0.39.

C29A U31A: the self-cleavage is 0.3.

For C29A U31C, the self-cleavage amounted to 0.3. Then A28U G61A, with 0.45.

Regarding C29G U31C, the self-cleavage is 0.13.

For C29G U60A, the self-cleavage was found to be 0.29. On to A28U C40A, for which the self-cleavage stood at 0.47. As for A28U C40G, the figure is 0.19; as for A28U C40U, 0.59. As for C29A A35G, the figure is 1.11; as for C29A A35U, 0.51; as for C29G A47G, 0.21.

Regarding A28U U48A, the self-cleavage stood at 0.38. As to A28U U48C, the self-cleavage came out at 0.42. Regarding A28U C32A, the self-cleavage stood at 0.19.

With A28U C32U, the self-cleavage came out at 0.17. As for C29G A64G, the figure is 0.41; as for A28U C68A, 0.32; as for C29G A65G, 0.27.
